The values below come from patent US9353421, “Aptamers that are specific for immunoglobulin-binding cell wall proteins” (Helmholtz-Zentrum für Umweltforschung GmbH-UFZ).

Data set [1] has as its target T1, Protein A (native, biotinylated) (Staphylococcus aureus, UniProt P02976 P02976:37-485). The experiment in a line: pulldown; magnetic bead binding; retained and even improved vs full length; 10 mM MgCl2, 21 C. The following applies: tags: biotin, immobilized on streptavidin Dynabeads M-280; Sigma-Aldrich P2165; label: fluorescein. As for the experimental part: (§1) The binding experiments were carried out under the SELEX conditions. 2.5-3 ×10^7 target-modified magnetic beads and ~55 pmol of fluorescein-labeled aptamer ssDNA in binding buffer (100 mM NaCl, 20 mM Tris-HCl, pH 7.6, 10 mM MgCl_2, 5 mM KCl, 1 mM CaCl_2) were employed for each experiment. The target-modified magnetic beads were prepared as a preliminary to the binding experiments, wherein Dynabeads® M-280 Streptavidin (Invitrogen, UK) were used in order to immobilize native, biotinylated protein A from *Staphylococcus aureus* (P2165, Sigma-Aldrich, Germany). Before each binding reaction the target-modified magnetic beads were washed several times in binding buffer and the aptamer ssDNA was thermally equilibrated by incubation at 90° C. for 8 min, on ice for 10 min and then converted to RT for ~5 min. The prepared aptamer ssDNA and the washed target-modified magnetic beads were then brought together for binding and incubated for 30 min at 21° C., while shaking. The non-bound ssDNA was removed and the binding complexes were washed several times in binding buffer. Thereafter, the target-bound ssDNA was eluted by means of heat by incubation of the binding complexes in binding buffer at 95° C. for 10 min, while shaking. […] The amount of ssDNA eluted could be quantified on the basis of the fluorescein labeling of the aptamer ssDNA and by means of a calibration curve. […]

The target of data set [2] is T1, Protein A (native, biotinylated). The experiment in a line: pulldown; magnetic bead binding; negative result; 10 mM MgCl2, 21 C. The following applies: tags: biotin, immobilized on streptavidin Dynabeads M-280; Sigma-Aldrich P2165; label: fluorescein. As for the experimental part: as §1
Data set [3] shares this target. The experiment in a line: pulldown; magnetic bead binding; complete loss of binding; 10 mM MgCl2, 21 C. The following applies: tags: biotin, immobilized on streptavidin Dynabeads M-280; Sigma-Aldrich P2165; label: fluorescein. As for the experimental part:
as §1

Data set [4] deals with Protein A (native) (UniProt P02976 P02976:37-485). The experiment in a line: SPR; steady-state avidity (bivalent analyte); 100 mM NaCl, 20 mM Tris-HCl pH 7.6, 10 mM MgCl2, 5 mM KCl, 1 mM CaCl2, 0.005% SP20. The settings on record: tags: Sigma-Aldrich P3838; label: 3'-biotin. From the text:
(§2) These changes are emitted as a measurable signal, expressed in resonance units (RU), and are proportional to the amount of target bound on the sensor surface. In the experiments presented here, non-specific ssDNA (SELEX library, 3'-biotinylated) was immobilized in the reference cell and ssDNA of the aptamer PA#2/8 (3'-biotinylated) was immobilized in the measurement cell. The target solution, comprising recombinant protein A (P7837, Sigma-Aldrich, Germany) or native protein A (P3838, Sigma-Aldrich, Germany) in binding buffer (100 mM NaCl, 20 mM Tris-HCl, pH 7.6, 10 mM MgCl_2, 5 mM KCl, 1 mM CaCl_2) with 0.005% SP20, was passed over the prepared sensor surfaces at a flow rate of 10 µl/min. […] The sensorgrams (FIG. 6, 8) show the double-referenced signal curve (measurement cell minus reference cell and buffer reference) during the binding and dissociation phase at different target concentrations in a range of 10 nM-5,000 nM protein A. During such a measurement series the 1,000 nM concentration of protein A was measured 3 times as a control. […]
(§3) From the binding data at the end of each binding phase with the different protein A concentrations a saturation curve was plotted (FIG. 7, 9) and the steady state affinity of the aptamer PA#2/8 for protein A was calculated from this. […]

In data set [5] the target is Protein A (recombinant) (UniProt P02976 P02976:37-485). The data set is described as above. The settings on record: tags: Sigma-Aldrich P7837; label: 3'-biotin.
Sequence of Protein A (recombinant) (P02976 37-485, one chain of several): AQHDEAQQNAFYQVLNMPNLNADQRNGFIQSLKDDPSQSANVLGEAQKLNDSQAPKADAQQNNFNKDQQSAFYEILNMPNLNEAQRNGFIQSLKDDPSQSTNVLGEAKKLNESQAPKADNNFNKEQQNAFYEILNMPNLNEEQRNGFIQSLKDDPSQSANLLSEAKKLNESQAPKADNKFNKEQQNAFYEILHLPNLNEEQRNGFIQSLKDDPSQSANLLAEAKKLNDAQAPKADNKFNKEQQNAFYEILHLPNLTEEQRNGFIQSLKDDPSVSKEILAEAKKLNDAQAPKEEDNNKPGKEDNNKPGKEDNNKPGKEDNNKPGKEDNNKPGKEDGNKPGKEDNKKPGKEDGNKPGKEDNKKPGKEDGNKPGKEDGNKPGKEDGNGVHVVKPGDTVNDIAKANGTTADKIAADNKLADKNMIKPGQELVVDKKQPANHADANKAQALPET
Source text: as §2, §3

T1 sequence (P02976 37-485, one chain of several): as above
Sequence of Protein A (native) (P02976 37-485, one chain of several): as above

B1: PA#2/8 [A1-58] (ssDNA)
DNA: ATACCAGCTTATTCAATTAGCAACATGAGGGGGATAGAGGGGGTGGGTTCTCTCGGCT
Consider B1, for which, in data set [1], the binding result is on record as “binds”.
With AGCAACATGAGGGGGATAGAGGGGGTGGGTTCTCTCGGCT (ssDNA) [PA#2/8CR40], in data set [2], the binding result was “no binding”.

B2: PA#2/8 [A19-76] (ssDNA)
DNA: AGCAACATGAGGGGGATAGAGGGGGTGGGTTCTCTCGGCTACAATCGTAATCAGTTAG
On to B2, for which, in data set [3], the binding result was “no binding”.

B3: PA#2/8 (3'-biotin) (ssDNA)
DNA: ATACCAGCTTATTCAATTAGCAACATGAGGGGGATAGAGGGGGTGGGTTCTCTCGGCTACAATCGTAATCAGTTAG
As for B3, the Kd in data set [4] is 75.3 nM; in data set [5], 188 nM.
